In a protein production outcome set (Wang et al. 2014):

Experiment: label from the status in PepcDB records
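Further: failed if final PepcDB status was selected cloned or expressed and not failed if soluble or beyond.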

Row | Sequence | protein production
1 | MGSGWGPLEPWDRLAQPRPATGRLAAPPHCPPALPLHSAAPGSRTGTGAMERTAGKELALAPLQDWGEETEDGAVYSVSLRRQRSQRSTPEGSGDGQTPIPAMDTFLQYRTSKVRALRAARLERLVHELVSGDREQDPGFVPAFLATHRAFVPTARVLGFLLPPPPPPPPPPAGVDSKRTEGQDLNFSKNLRAVVSVLGSWLRDHPQDFRDPPDHQNLGDVRIFLGWAAPGGAEVREAEKLLEDFLKEAKEEQTEGEQRLAWAGPPWAAQSPRSEFAEDYSEEEGLRSEGPELLDFSVDEVAEQLTLMDVELFLRVRSCECLGSMWSQRDRPGAAGISPTVRATVAQFNAVTGCVLGSVLAAPGLAASQRAQRIEKWIRIAQRCRELRNFSSLRAILSALQSNPIYRLKRSWGAVSREPLSVFRKLSQIFSDEDNHLSSRAILSQEETTEGPQGDDCSPGSLPSKLPPGPVPYLGTFLTDLVMLDTALPDMLKGNLINFEKRRKEWEILARIQQLQHRCQHYSLSPRPPILAALRAQRQLSEEQSYRVSRVIEPPAASCPSSPRIRRRISLTKRLSAKLSREKNQSPGGSPGDPPSPTSSVSPGSPPASPRSQDPPPGSPPASPGPQSPSTKLSLSMEPPGPWPMTLTPSSSRTPLLGQQTSEARVIRVSINNNHGNLYRSILLTCQDKAPSVVQRALEKHNVPQPWARDYQLLQVLPGDRELLIPDSANVFYAMNPAAPGDFLLRRKEGTGHTPSASPS | failed
2 | APHGPGLIYRQPNCDDPETEEAALVAIDYINQNLPWGYKHTLNQIDEVKVWPQQPSGELFEIEIDTLETTCHVLDPTPVARCSVR | failed
3 | MGYPPIRRFEYEHRGTETFTGRSPVPCHHAGIMSLYLRKQAYGVAPMKKIILSTIAALVASGSVFASYGTAAAQDYPYRPRYDRGYDRGGPPPPPYREHRRHNDGAAIAGGLAAGVIGGLIGGAIANGNGGPRYYEPPPPPRCWFEDRRVPNAYDGGWHMESMRVCN | failed
4 | MKISQLLSLDTIKLNLAASNKNEVIDQLVDVLWDAGKLTDKNLYKEEILKRESLSSTGIGERIAIPHAKTKAVKNASLALGIYKYGVDYDSLDGEPVNIVFMIAAPAGANDEHLETLSRLSVLLMNPDFKNGLLNAKTPEEVISLLDKFEENEESDETQASNEAENNSNKKYILAVTACPTGIAHTYMAADSLNKTAKEMDVHIKVETNGSTGVKNRLTQEDIDKADGIIVAADKQVEMARFNGKKVVIVPVVQAMKRPQELINEALSGSAPVYSHSGDSSNQSSGKTERRGFYKHLMNGVSNMLPFVVGGGILIAISFMFGIHSAEINDPTFNPIAKLLKDIGGGNAFFLMIPVLAGFIGSSIADRPGFAPAMVGGLIAANSGSGFLGGLIAGFLGGYVVVLLKKIFSKLPQSLEGIKPVLLYPLFGILITGALMYLVIVGPVTALNNNIAIWLQNMGTGNLVLLGIVLGGMMAIDMGGPINKAAFTFGIAMIASGNYYPHAAIMAGGMVPPLATALATTFFKNKFTKDERDAGTTNYIMGLTFITEGAIPFAAADPFRVIPACVIGSAIAGGLSMVFKIGLPAPHGGIFVVPVVEGNPLLYLLSILVGSIVAALIIGFLKKPVNEINK | failed
5 | MIGIVAAFEKVKIPEMGKSFGTGWLPPLPSLKDYTEESAQIPEMAEKLGIPTSRKETKTLELPVSIDFRNWCSPIEDQMDLGSCTAHAGVGVVEYFERRAFGKHIDGSRFFVYKTTRNLMGVKGDTGAWLRNTMGALALCGVPPEKYFPYTSRKTPGPDGEPTFDDEPSSFVYSLADNFEALNYFCHDPQGMNLPPEDVILSVKKYLAAGIPSMFGFYGFPSFKDTDVKGGIPFPGPDERSIWGHAVVAVGYDDNMKIRNTLSNKETTGAFLIRNSWGTAWGDKGYGWLPYEYALNKFALDFWSLISMKWVETGNFGLELESSRSRARETLSRDMPLPHALEHHHHHH | not failed
6 | MSDYYLFAGRLFIAVMYVLSGANKLLFFSHGLDEVKSRNLPFPQLALSATIAVQLICGLAIMAGFQTTTASLLLALFTLATAVLFYDFWNQEGAQRTLMFTGFLEHISIIGGFALLMGAGPGKFVLLP | failed
7 | MASGSPPSQPSPASGSGYVPGSVSAAFVTCPNEKVAKEIARAVVEKRLAACVNLIPQITSIYEWKGKIEEDSEVLMMIKTQSSLVPALTEFVRSVHPYEVAEVIALPVEQGNPPYLHWVHQVTESV | not failed
8 | SVSAGVQAVESILDREEIRRVILVGAGTGAGVALEIAKNQPRRVERLVLDSPLVTFDEKQLKGMSTALKMMPGFFFRKKNKKDLLQQVEEARTAVPMGFSEITMPTLIIRGSAAKAGIDSDLEKQIPSARATTIIGANWLTYTTHGRQTGAAIAEFLAQ | failed
9 | MSSSSSKIVVYAALVGNLLIALSKFIAAYFTNSAAMLSEAIHSVVDSLNEILLLYGLKKSQKPANYRHPFGYGRELYFWAFIVALLVFALGAVVSIYQGVSHILQPEEMKYPLVNYLVLGFAILCEGASWWVAVKNFKKMKGSLGYFEAFKRSKDPTTFTVLFEDSAALIGLIIALIGITAAQFLQIPILDGVASVLIGVVLAVSAFLLARETKGLLLGETADPELRKNVLRIAQDDEAVYSANGVLTEQIGAHQVIASLSLEFKDGLISDEIENCVNRIEAQIKQIHPEIVALFIKPQSNEVWLERMKGRLNQQNGEIVAAKVK | failed
10 | MPSDNTYIRFRQQQRDPLHVNSPVSAGNISGVQGSGSRHPPSPPTPTTQPSVNHSDAQAERLNNLTLDELLDSPGRAGLTRLDPKRPLATLWFDDDSTVAATVRSIFERDFKEPHANWSQTSKATIDRWYETFAQVYNWDRSINKRVRVEFEAKLNSRMSDQVSRWKGNWKEKGDEAKPKWIDPEGIYKHCSGQTSYKARARKRCEKTGETTPDFLELLDETHRKADGTFIDGKSEEIYKKVTSRIEEEESHMCSGDNPESTGSCGLSVHAKNKIFVEVAPRKKGRIYGVGSLQFEAFSAHSGSTLPSDDPVILSQKLAAAEACIQSQAEKINSFDILFDYLADKDPALAAILRRGSSTQTGPASANEAPVATAPEQQVANEETAAATLANLATGSSPSSIF | failed
11 | MTQQNHLRGVLLASSACILWGISGVAASTLFINNPHLTAMWLTQVRMISAGLILLVWGMVAGKHPFKIWHHRHAAWTAVSYGLLGLIPVQLCYFEAVRVGNAPIATIIQFLGPFIISIYYFLFKHVTPSRIELIGMIMAFIGTLLIVTHGHLNSLAISPVILFWGGLSAIGVATNTLIPRTILPKYGALTVTGWGLLIAGLFLTLLQPMWRVHLTITWPQLGLLIVIILLGTVAPFLMFARSLSDILPTTASLMDAFEPLAATVFSITFLNVQLTSFDFIGGLLIILAVMALSLNTHKMLHFLRRRRAHSSS | failed
12 | PPAAVGPWDDILAPLYRYTRARARELAETRETMQSMLAAAQALPDGVVTLNEDFQIDWANRMARRHLGLRLPADRGHNLLNLLRAPEFVAYAHRGHWPEPILVRLSLNGQERVMMIHLAGYAS | failed
13 | MTYEIVIAGFGGQGVLSMGKILAYSGLMEDKEVSWMPSYGPEQRGGTSNVTVIVSDEQVSSPVLNEYDIVIVLNQPSLDKFEARVKKGGILVYDPDSIVLKNKRDDIQIYEVDATQESLRMGNQK | failed
14 | RQVTDSDETEELIHLLLDNYAEGKIVKLLFMSENATQPVISQVAKENDVMLNVLHGNLTQTQNGAYGTLYVQVLGTEEAIEASLTQLRQLKVETEVLER | not failed
15 | LNKEGEVERLLGINMDMTEVKQLNEALFQEKERLHITLDSIGEAVVCIDMAMKITFMNPVAEKMSGWTQEEALGVPLLTVLHITFGDNGPLMENIYSADTSRSAIEQDVVLHCRSGGSYDVHYSITPLSTLD | failed
16 | MALDEAPAEARPGSRAVELEIDGRSRIFDIDDPDLPKWIDEEAFRSDDYPYKKKLDREEYEETLTKLQIELVKVQFWMQATGKRVMAVFEGRDAAGKGGAIHATTANMNPRSARVVALTKPTETERGQWYFQRYVATFPTAGEFVLFDRSWYNRAGVEPVMGFCTPDQYEQFLKEAPRFEEMIANEGIHLFKFWINIGREMQLKRFHDRRHDPLKIWKLSPMDIAALSKWDDYTGKRDRMLKETHTEHGPWAVIRGNDKRRSRINVIRHMLTKLDYDGKDEAAIGEVDEKILGSGPGFLR | not failed
17 | MENSLNQNKVWGWGELALMYFPNISQKSATMQLLKWIRVSDELVGQLEKSGWHPGKKYLTPRQKDYIVGHLGEP | failed
18 | MPKVSVVIPAYNAMPYLPETLESVLRQTYHDFEVVVVNDGSSDNTEEWVSQILDPRLKLISQANQGLAGARNTGIVNASGEYIAFLDADDIWEPTKLAKQVSVLDENPTVGLVYTWVAYIDEQGKSTGKIFKNQVEGYVWPQLTEHNIVECGSVALVRRVCFEKMGLFDRNLGSYVEDWDMWLRIATSYDFKVVKEALVYYRQRSNSASKNWEAMAHSFAIVIEKAFATASQDLQVLKNKSYGFTYLCLAWKPLQSFQKDYQKSREFCQQAVAYYPSLRFSQEYIRLSIAINLMRWFGADGYSKLLPLFHTMRRVKLALQK | failed
19 | MTPETNETLKLIGSDKVQGTAVYGPDGEKIGSIERVMIEKVSGRVSYAVLSFGGFLGIGDDHYPLPWPALKYNVELGGYQVMVTVDQLERAPKYGPGSEWDWRGARKVDDYYGVALT | not failed
20 | TARLVAGLEDVQVYDGEDAVFSLDLSTIIQGTWFLNGEELKSNEPEGQVEPGALRYRIEQKGLQHRLILHAVKHQDSGALVGFSCPGVQDSAALTIQES | not failed
21 | MRRSKYFTPNEVSLHNTINDIWVSYLGKVYDLTPLLEAYKGDVLLKPIIECAGKDISHWFDPKTKDILTHVDPLTGCIKYYTPRGRFIHIPPPCPRTDWANNFGKPWWKDNRYEVGLLSAKTRWIRIINTLTSQEQKLEVCSEESLDEILHRYLFYNSHAASYTWKLSGINLDMSKTLSENGIPEEDEFYCGSPDCNLFSPSICLYFNDDLTEL | failed
22 | MEKIIVRGGKRLNGTVRVEGAKNAVLPIIAAALLASDGKNVLSEVPVLSDVYTINEVLRHLNAEVVFENNQVTIDASKELNIEAPFEYVRKMRASVQVMGPLLARNGRARIALPGGCAIGSRPIDQHLKGFEAMGAKVQVGNGFVEAYVEGELKGAKIYLDFPSVGATENIMSAATLAKGTTILENAAKEPEIVDLANFLNAMGAKVRGAGTGTIRIEGVDKLYGANHSIIPDRIEAGTFMVAAAITGGDILIENAVPEHLRSITAKMEEMGVKIIEENEGVRVIGPDKLKAVDIKTMPHPGFPTDMQSQMMALLLQADGTSMITETVFENRFMHVEEFRRMNADIKIEGRSVIMNGPNSLQGAEVGATDLRAAAALILAGLVSEGYTRVTELKHLDRGYVDFHKKLAALGATIERVNEKVEEVKEQEVSDLHA | not failed
23 | SRLPKSPPYTAFLGNLPYDVTEESIKEFFRGLNISAVRLPREPSNPERLKGFGYAEFEDLDSLLSALSLNEESLGNKRIRVDVADQAQDKD | not failed
24 | MSAPLFSVVVPAYNQHKFIDSCLTSLQRQTLTDFEVFVVDDCSTDDTGEQIAALIKGDDRFHVITHAHNRGVSAARNSGMAAAKGKYLCFVDGDDWVEPDFLATFLAAYRSAPDTQLVVCGHYGYLAVPSPAKTYNQKDLIANINFGTVGGFSWNKAFIRSIITTHHLKFNEDIDFLEDQLFAFRYANYVQSSEYVPDRTYHYRWRFRSNLAHIGIPFFTARRKMMKILKQENKQVLNEDWNNQLEHHHHHH | failed
25 | MALPHVVSSPSSTSLSPSFKSKPPFHSLRSLSPTVDNRRRCKLNSSFRCSSSSFSEKHHNAKSPKSDDIVELPLFPLPLVLFPGAILPLQIFEFRYRIMMHTLLQSDLRFGVVYSDSVSGSAAEVGCVGEVVKHERLVDDRFFLVCKGQERFRVTNVVRTKPYLVGEVTWLEDRPSGEENLDSLANEVEVLMKEVIRLSNRLNGKAEKEVQDLRRNQFPTPFSFFVGSTFEGAPREQQALLELEDTAARLKRERETLRNTLNYLTAASAVKDVFPSSS | failed
26 | MSGDFDTIRDASSPDEVQLVRLLEEKIKSLQIEIENLRKELNYYKAEMEKMLSPPLIEAVVLDVLPDGRVLVRSSSGPNLVVNIASHIDQKLIKPGISVALNQRGSTILEVLPQKE | not failed
